This is an account of results in patent US20140157444A1 (COUNCIL OF SCIENTIFIC AND INDUSTRIAL RESEARCH, published 2014).

One assay concerns the target T1, hHDAC4-FLAG (human, UniProt P56524 1-1084, limits assumed).
T1 construct: Species is read from the prefix 'h' of the plasmid name; also called pCMX-hHDAC4-FLAG; not shown: FLAG tag
Nature of the assay: co-immunoprecipitation from co-transfected HEK 293 cells: anti-FLAG IP, anti-Myc blot. An excerpt:
(§1) FIG. 10. Identification of proteins interacting with WDR13. […] B) Immunolocalization of WDR13 protein in HELA cells transfected with pCMV-FLAG-Wdr13 (SEQ ID NO: 3) vector using anti FLAG antibody. C) Silver stained gel of immunoprecipitated proteins using anti FLAG antibody from HELA cells transfected with pCMV-FLAG control and pCMV-FLAG-Wdr13 vectors having SEQ ID NO: 3.
(§2) FIG. 11. Interactions of WDR13 with ERs, HDACs and PHIP1 A) HEK 293 cells were co-transfected with FLAG-Wdr13 (from the position 922 to 2443 in SEQ ID NO: 3) and GFP-ERα, grown in the presence or absence of estradiol. The cell lysate was immunoprecipitated with anti FLAG antibody and immunoblotted with anti GFP antibody. […] B) HEK 293 cells were co-transfected with FLAG-Wdr13 (from the position 922 to 2443 in SEQ ID NO: 3) and Myc-ERβ I (from the position 900-2673 in SEQ ID NO: 6), grown in the presence or absence of estradiol. The cell lysate was immunoprecipitated with anti FLAG antibody and immunoblotted with anti Myc antibody. […] C) HEK 293 cells were co-transfected with Myc-Wdr13 (from the position 900 to 2448 in SEQ ID NO: 4)/various FLAG-HDACs and the cell lysate was immunoprecipitated with anti FLAG antibody and immunoblotted with anti Myc antibody.

The next assay deals with T2, mHDAC2-FLAG (mouse, UniProt P70288 1-488).
T2 construct: Species is read from the prefix 'm' of the plasmid name; also called pCMX-mHDAC2-FLAG; not shown: FLAG tag
T2 sequence (P70288 whole entry): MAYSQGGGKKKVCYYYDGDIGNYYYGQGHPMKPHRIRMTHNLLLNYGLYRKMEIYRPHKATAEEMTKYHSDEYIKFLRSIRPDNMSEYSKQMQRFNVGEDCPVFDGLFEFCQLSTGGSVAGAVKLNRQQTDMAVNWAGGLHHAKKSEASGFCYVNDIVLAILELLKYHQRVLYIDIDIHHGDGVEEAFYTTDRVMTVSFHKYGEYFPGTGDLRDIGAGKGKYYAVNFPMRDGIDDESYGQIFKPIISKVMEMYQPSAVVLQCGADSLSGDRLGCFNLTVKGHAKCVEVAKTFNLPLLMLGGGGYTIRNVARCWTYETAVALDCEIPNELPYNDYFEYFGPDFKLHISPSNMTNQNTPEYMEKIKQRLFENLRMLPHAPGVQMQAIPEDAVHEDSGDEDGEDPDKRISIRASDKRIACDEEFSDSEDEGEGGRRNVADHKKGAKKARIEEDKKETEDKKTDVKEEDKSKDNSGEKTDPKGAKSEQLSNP
The assay is described as above.
Excerpt: as §1, §2

T1 sequence (P56524 whole entry): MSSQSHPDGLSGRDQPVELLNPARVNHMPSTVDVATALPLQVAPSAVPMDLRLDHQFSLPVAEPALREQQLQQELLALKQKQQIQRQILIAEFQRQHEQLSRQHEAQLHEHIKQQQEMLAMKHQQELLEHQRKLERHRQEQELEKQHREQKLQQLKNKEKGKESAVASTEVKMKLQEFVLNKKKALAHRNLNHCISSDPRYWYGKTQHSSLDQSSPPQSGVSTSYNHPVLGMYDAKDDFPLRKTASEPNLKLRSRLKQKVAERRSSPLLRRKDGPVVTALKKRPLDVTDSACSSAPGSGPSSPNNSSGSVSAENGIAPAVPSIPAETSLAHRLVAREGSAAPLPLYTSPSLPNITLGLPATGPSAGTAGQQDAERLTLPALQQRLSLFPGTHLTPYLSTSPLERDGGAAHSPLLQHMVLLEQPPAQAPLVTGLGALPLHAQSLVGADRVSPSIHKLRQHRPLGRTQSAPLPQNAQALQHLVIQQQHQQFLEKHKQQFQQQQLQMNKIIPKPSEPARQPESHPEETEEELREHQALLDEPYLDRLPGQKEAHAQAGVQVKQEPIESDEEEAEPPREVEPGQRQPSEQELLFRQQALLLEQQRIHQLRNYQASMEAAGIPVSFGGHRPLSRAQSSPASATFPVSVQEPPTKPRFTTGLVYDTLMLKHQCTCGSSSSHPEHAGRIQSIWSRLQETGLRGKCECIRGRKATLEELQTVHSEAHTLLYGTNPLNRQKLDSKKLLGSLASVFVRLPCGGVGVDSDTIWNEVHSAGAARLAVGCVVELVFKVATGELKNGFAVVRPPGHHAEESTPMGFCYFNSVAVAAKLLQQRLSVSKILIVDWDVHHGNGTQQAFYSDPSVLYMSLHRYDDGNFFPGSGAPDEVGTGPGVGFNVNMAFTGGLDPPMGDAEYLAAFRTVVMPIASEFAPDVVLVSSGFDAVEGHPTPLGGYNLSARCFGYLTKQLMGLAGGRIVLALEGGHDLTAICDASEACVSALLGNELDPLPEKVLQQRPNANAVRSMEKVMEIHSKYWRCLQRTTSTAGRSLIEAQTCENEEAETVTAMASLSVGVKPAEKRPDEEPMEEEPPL

B1: Myc WDR13 fusion protein (other, mouse, UniProt Q91V09 1-485, looked up)
chain: MAAVWQQVLAVDARYNAYRTPTFPQFRTQYIRRRSQLLRENAKAGHPPALRRQYLRLRGQLLGQRYGPLSEPGSARAYSNSIVRSSRTTLDRMEDFEDDPRALGARGHRRSVSRGSYQLQAQMNRAVYEDRPPGSVVPTSVAEASRAMAGDTSLSENYAFAGMYHVFDQHVDEAVPRVRFANDDRHRLACCSLDGSISLCQLVPAPPTVLHVLRGHTRGVSDFAWSLSNDILVSTSLDATMRIWASEDGRCIREIPDPDGAELLCCTFQPVNNNLTVVGNAKHNVHVMNISTGKKVKGGSSKLTGRVLALSFDAPGRLLWAGDDRGSVFSFLFDMATGKLTKAKRLVVHEGSPVTSISARSWVSREARDPSLLINACLNKLLLYRVVDNEGALQLKRSFPIEQSSHPVRSIFCPLMSFRQGACVVTGSEDMCVHFFDVERAAKAAVNKLQGHSAPVLDVSFNCDESLLASSDASGMVIVWRREQK
notes: Overexpressed in HEK 293 cells; (mouse gene); also called pCMV-Myc-Wdr13; not shown: Myc peptide at the N-terminus, from the pCMV-Myc vector
B1: the binding result with hHDAC4-FLAG and in the assay with mHDAC2-FLAG was “no binding” in each case.
